Measured values: US7189694B2, “Inhibitors of autophosphorylation protein kinases” (University of Florida Research Foundation, Inc., priority 2003, dated 2007)
Ends that are not written are not given here.

Key:
[1] = molecular target: T1, JAK2 WT peptide (JAK2 autophosphorylation site 1001LPQDKEYYKVKEP) (Homo sapiens, UniProt O60674); assay: ELISA binding of biotinylated JAK2 WT peptide to solid-phase peptides; settings: FIG. 1A; ELISA, peptides coated on 96-well plates
T1 construct: made in house; host or cells: chemical synthesis (Fmoc)
Protocol: Binding assays: For ELISA binding assays Tkip and other peptides to be tested were bound to 96-well plates in 0.1 M carbonate binding buffer (pH 9.6) at a final concentration of 3 μg/well (50 μl). Wells were then washed three times with wash buffer containing 0.9% NaCl and 0.05% tween-20 in PBS and blocked with 2% gelatin and 0.05% tween-20 in PBS for 1 h at room temperature. Wells were then washed three times with wash buffer and incubated with various concentrations of biotinylated JAK2 WT peptide and biotinylated P-JAK2 WT peptide for 1 h at room temperature in blocking buffer. Following incubation, wells were washed five times with wash buffer to remove any unbound biotinylated peptides. Bound biotinylated peptides were detected by incubation with a 1:500 dilution of NEUTRAVIDIN biotin binding-protein conjugated with horseradish peroxidase (Molecular Probes, Eugene, Oreg.) in blocking buffer for 1 h at room temperature. Wells were then washed five times with wash buffer and developed with a solution of o-phenylenediamine (OPD) in stable peroxidase buffer (Pierce, Rockford, Ill.). The assay was stopped with the addition of 2 M H2SO4 (50 μl) to each well. Absorbance was measured using a 450 microplate reader (Bio-rad, Hercules, Calif.) at 490 nm. Control experiments were carried out as described above in the absence of immobilized peptides.

recombinant human JAK2 = molecular target: T2, recombinant human JAK2 (Homo sapiens, UniProt O60674); assay: In vitro JAK2 kinase assay (32P, SDS-PAGE, autoradiography); type: biochemical; settings: peptide at 50 μM
T2 construct: purchased Upstate Biotechnology, Lake Placid, N.Y
Protocol: Determination of JAK2 autophosphorylation activity was performed in reaction mixtures containing recombinant human JAK2 immobilized on agarose beads (Upstate Biotechnology, Lake Placid, N.Y.), 1 μCi/μl of [^32P]γ-ATP (Amersham Biosciences, Piscataway, N.J.), and either Tkip or JAK 2 WT peptide incubated in kinase buffer (10 mM HEPES [pH 7.4], 50 mM sodium chloride, 0.1 mM sodium orthovanadate, 5 mM magnesium chloride, 5 mM manganese chloride). JAK2 kinase assays were performed in 35 μL reaction volumes containing 10.5 μL Tkip, 20 μL JAK2 agarose beads, 1 μL sIFNGR-1, and 3.5 μL [^32P]γ-ATP incubated at 30° C. for 30 min with intermittent agitation. […] EGFR, VEGFR, and JAK2 kinase reactions were terminated with the addition of 5 μl 6×SDS sample buffer (0.5 M Tris-HCl [pH 6.8], 36% glycerol, 10% SDS, 9.3% DTT, 0.012% bromophenol blue). Incubation of JAK2 agarose beads in SDS sample buffer (100° C.) was designed to elute bound proteins from the agarose beads. The reaction mixtures were separated on a 10% SDS polyacrilamide gel. Autoradiography was used to determine phosphorylation activity.

[2] = test system: biotinylated JAK2 WT peptide binding to Tkip peptide; assay: ELISA peptide competition for biotinylated JAK2 WT binding to Tkip; parameters: species or system human; settings: FIG. 1B; unlabeled competitor peptide
Protocol: Peptide competition experiments were conducted using peptides derived from the JAK tyrosine kinase family, vascular endothelial growth factor receptor (VEGFR), and cyclin dependent kinase (CDK) to compete with biotinylated JAK2 WT peptide for binding to Tkip. Binding of biotinylated JAK2 WT was determined as above, except that following Tkip peptide immobilization, washing, and blocking in blocking buffer for 1 hr at room temperature unlabeled competitors were added to wells and incubated for 30 min at varying concentrations before biotinylated JAK2 WT peptide was incubated for 1 hr in each well to determine the extent of competition with unlabeled peptides. Detection and analysis of binding was carried out as described above.

[3] = test system: MHC class I expression on WISH cells; assay: Flow cytometry of IFN-γ induced MHC class I expression on WISH cells; type: cell-based, human
Protocol: Flow Cytometry: WISH fibroblast cells (2×10^6) were incubated for 48 h with media alone, 25 μM MuIFNγ(95–125) peptide, or lipophilic Tkip (LT) at varying concentrations (1 μM, 10 μM, 25 μM) in the presence or absence of 5000 units/ml IFN-γ in 6-well culture plates at 37° C. in a 5% CO2 atmosphere. Following incubation, cells were washed twice with PBS and harvested by trypsinization into two sets of 5-ml round bottom polystyrene tubes (Fisher, Pittsburgh, Pa.) and washed twice with PBS. For cell surface staining a direct immunofluorescence protocol was employed. […] The fluorescent-conjugated isotype antibody was used to determine background fluorescence by identifying nonspecific binding of the monoclonal antibody to WISH cells. […] WISH fibroblast cells were finally resuspended in 500 μl of PBS and analyzed on a FACScan fluorescence-activated cell sorter (Becton Dickinson, San Jose, Calif.). […] The red fluorescence of R-PE was excited at 488 nm. […] The fluorescence intensity of the negative controls were subtracted from the mean fluorescence for the R-PE labeled cells. […] Flow cytometry data were analyzed using CellQuest analysis software (Becton Dickinson, San Jose, Calif.).

T2 sequence (O60674 whole entry): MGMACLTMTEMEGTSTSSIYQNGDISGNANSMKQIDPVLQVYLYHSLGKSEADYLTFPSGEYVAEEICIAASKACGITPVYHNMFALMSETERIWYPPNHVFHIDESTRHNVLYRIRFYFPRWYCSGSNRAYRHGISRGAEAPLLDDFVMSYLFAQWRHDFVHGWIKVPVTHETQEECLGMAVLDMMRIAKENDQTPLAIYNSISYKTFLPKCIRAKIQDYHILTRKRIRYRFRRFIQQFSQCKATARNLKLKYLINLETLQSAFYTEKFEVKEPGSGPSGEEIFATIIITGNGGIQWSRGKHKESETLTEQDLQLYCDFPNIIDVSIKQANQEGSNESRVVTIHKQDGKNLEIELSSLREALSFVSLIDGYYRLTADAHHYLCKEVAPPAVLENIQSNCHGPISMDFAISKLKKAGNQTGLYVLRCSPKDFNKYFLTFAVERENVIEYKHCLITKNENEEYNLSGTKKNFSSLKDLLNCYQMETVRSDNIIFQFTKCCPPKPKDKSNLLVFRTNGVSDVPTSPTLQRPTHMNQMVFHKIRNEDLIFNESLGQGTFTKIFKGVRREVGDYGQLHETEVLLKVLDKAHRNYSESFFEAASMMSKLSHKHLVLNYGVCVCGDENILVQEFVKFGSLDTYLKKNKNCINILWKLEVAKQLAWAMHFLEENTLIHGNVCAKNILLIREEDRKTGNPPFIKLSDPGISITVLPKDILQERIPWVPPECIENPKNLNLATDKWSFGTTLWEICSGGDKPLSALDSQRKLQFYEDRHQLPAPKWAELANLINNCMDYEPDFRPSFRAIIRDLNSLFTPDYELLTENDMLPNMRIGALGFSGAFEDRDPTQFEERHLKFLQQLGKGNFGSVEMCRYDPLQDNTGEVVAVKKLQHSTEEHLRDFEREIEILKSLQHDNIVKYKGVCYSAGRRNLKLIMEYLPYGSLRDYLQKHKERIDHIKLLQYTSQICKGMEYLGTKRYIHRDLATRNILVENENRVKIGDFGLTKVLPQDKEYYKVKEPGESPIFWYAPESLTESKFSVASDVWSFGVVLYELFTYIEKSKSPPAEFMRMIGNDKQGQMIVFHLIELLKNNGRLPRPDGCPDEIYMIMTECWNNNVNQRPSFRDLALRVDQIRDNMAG

Row | Substance | binding of biotinylated JAK2 WT peptide to solid-phase peptide [1] | inhibition of biotinylated JAK2 WT peptide binding to Tkip peptide [2] | further results
1 | AKFEVNNPQVQRQAFNELIRVVHQLLPESSL (amino acid sequence of a peptide used for control purposes) [IFN-γ95–125] | negligible | – | –
2 | LPQDKEYYKVKEP (amino acid sequence of a peptide used for control purposes) [JAK2 WT, JAK2 autophosphorylation site peptide, residues 1001-1013; control peptide, reference compound] | – | inhibited | inhibition of JAK2 autophosphorylation (recombinant human JAK2): had no effect; inhibition of JAK2 phosphorylation of IFNGR-1 (recombinant human JAK2): had no effect
3 | NGVLFLMIFHFLG (amino acid sequence of a peptide that can be used according to the present invention) | – | – | inhibition of JAK2 phosphorylation of IFNGR-1 (recombinant human JAK2): did inhibit
4 | control lipophilic peptide (IFN-γ 95–125): lipophilic irrelevant peptide MuIFN-γ(95–125) (AKFEVNNPQVQRQAFNELIRVVHQLLPESSL; also: lipophilic group, site not given here; UniProt P01580 117-147, looked up, fragment) [reference compound] | – | – | effect on IFN-γ upregulation of MHC class I expression ([3]; 10 μM or 25 μM Tkip (control 25 μM), 5000 U/ml human IFN-γ, 48 h): had no effect
5 | KTEGVPSTAIREISLLKELNH (amino acid sequence of a peptide used for control purposes) [CDK 41–61, cyclin-dependent kinase, cyclin box peptide 41–61] | negligible | neither CDK 41–61 nor VEGFR 1208–1222, inhibited | –
6 | human IFN-γ: human gamma interferon cytokine used as stimulus | – | – | increase in MHC class I as per FACS analysis ([3]; 5000 U/ml): over 3 fold
7 | EMLVLLMALKLLA (amino acid sequence of a peptide that can be used according to the present invention) | – | – | inhibition of JAK2 autophosphorylation (recombinant human JAK2): inhibited autophosphorylation of JAK2 (lane 7 of FIG. 4, upper panel), although it was not as effective as the Tkip peptide
8 | SSDVRYVNAFKFM (amino acid sequence of a peptide used for control purposes) [VEGFR 1208–1222, vascular endothelial growth factor receptor autophosphorylation peptide] | negligible | neither CDK 41–61 nor VEGFR 1208–1222, inhibited | –
